Tests used:
[1] = target: Azotobacter vinelandii 3-mercaptopropionic acid dioxygenase (Azotobacter vinelandii); assay: crystal structure; crystal form B, space group P6(1)22, four monomers in the asymmetric unit; HEPES pH 7, pentaerythritol propoxylate, sodium thiocyanate, 22 °C; thiocyanate bound at the iron
[2] = target: Azotobacter vinelandii 3-mercaptopropionic acid dioxygenase (Azotobacter vinelandii); assay: crystal structure; crystal form A, space group P3(1), 12 monomers in the asymmetric unit; 100 mM MES pH 6, 30% poly(acrylic acid sodium salt) 5100, 10% ethanol, 50 mM MgCl2, 22 °C; complex with 3HPA and chloride
[3] = target: T1, 3-mercaptopropionic acid dioxygenase (Av3MDO) (Azotobacter vinelandii, UniProt C1DN94); assay: X-ray crystal structure ([…] Å); competitive inhibition by O2 electrode steady-state kinetics; assay type: biochemical
T1 construct: gene Avin_30970; His-tag removed by thrombin; N- and C-termini not modelled
T1 sequence (C1DN94 entry or part of it): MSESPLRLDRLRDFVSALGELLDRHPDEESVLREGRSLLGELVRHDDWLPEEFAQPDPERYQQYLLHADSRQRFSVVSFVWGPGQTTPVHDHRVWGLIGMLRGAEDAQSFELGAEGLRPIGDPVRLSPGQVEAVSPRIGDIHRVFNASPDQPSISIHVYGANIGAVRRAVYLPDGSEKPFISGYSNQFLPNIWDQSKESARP

Compound	stoichiometry N [1]	stoichiometry N [2]	Ki [3]
Azotobacter vinelandii 3-mercaptopropionic acid dioxygenase (enzyme)	2	2	
O=C(O)CCO [3HPA, 3-hydroxypropionic acid]			280 ± 26 µM

Reference: publication PMC8050391, “Structure of 3-mercaptopropionic acid dioxygenase with a substrate analog reveals bidentate substrate binding at the iron center” (The Journal of Biological Chemistry, 2021)
